# B1: mAb 102 (antibody, V domains shown)
# VH: QVQLVESGGGVVQPGRSLRLSCAASGFSFRSYGMHWVRQAPGKGLEWVSVISYDGGNKYYADSVKGRFTISRDNSKNTLFLQMKSLRAEDTALYYCAKGGGTYWRGLFEYWGQGTLVTVSS
# VL: DIQLTQSPSFLSASVGDRVTITCRASQGISSYLAWYQKKPGKAPKLLIYAASTLHSGVPSRFSGGGSGTAFTLTISSLQPEDFATYYCQQLNNYPFTFGPGTKVDIK
# B2: mAb 97 (antibody, V domains shown)
# VH: QGQLVESGGGVVQPGRSLRLSCAASGFTFRGYGMHWVRQAPGKGLEWVAIIYYDGKNKYYADSVKGRFTISRDNSKNTLYLQMNNLRVEDTAVYYCARGGGYNWFDPWGQGTLVTVSS
# VL: DIQMTQSPSSLSASIGDRVTITCRASQSISNYLNWYQQKPGKAPKLLIYSASSLQSGVPSRFSGSGSGTDFTLTISNLQPEDFAIYYCQRSYSPPFTFGPGTKLDIR
# B3: mAb 99 (antibody, V domains shown)
# VH: QGQLVESGGGVVQPGRSLRLSCAASGFTFRGFGMHWVRQAPGKGLEWVAIIYYDGKNKYYADSVKGRFTISRDNSKNTLYLQMNSLRAEDTAVYYCAKGGGYNWFDPWGQGTLVTVSS
# VL: DIQMTQSPSSLSASVGDRVTITCRASQSISTYLNWYQQKPGKAPKLLIYSASSLQSGVPSRFSGSGSGTDFTLTISNLQPEDFAIYYCQRSYSPPFTFGPGTKLDIR
# B4: mAb 98 (antibody, V domains shown)
# VH: QVHLVESGGDVVQPGRSLRLSCSASGFTFSGYGMHWVRQAPGKGLEWVALIYFDGRNKYYADSVKGRFTISRDNSKNTLYLQMNSLRAEDTAVYYCARGGGYNWFDPWGQGTLVTVSS
# VL: DIQMTQSPSSLSASVGDRVTITCRASQSINNYLNWYQQKPGKAPKLLIYLASSLQSGVPSRFSGSGSGTDFTLTISSLQPEDLATYYCQLSYSSPFTFGPGTKVDVK
# B5: mAb 101 (antibody, V domains shown)
# VH: QGQLVESGGGVVQPGRSLRLSCAASGFTFRGFGMHWVRQAPGKGLEWVAIIYYDGKNKYYADSVKGRFTISRDNSKNMLYLQMNSLRAEDTAVYYCAKGGGYNWFDPWGQGTLVTVSS
# VL: DIQMTQSPSSLSASVGDRVTITCRASQSISTYLNWYQQKPGKAPKLLIYSASSLQSGVPSRFSGSGSGTDFTLTISNLQPEDFAIYYCQRSYSPPFTFGPGTKLDIR
# B6: mAb 100 (antibody, V domains shown)
# VH: QVQLVESGGGVVQPGRSLRLSCVASGFTFRGYGMHWVRQAPGKGLEWVAIIYYDGKNKYYADSVKGRFTISRDNSKNTLYLQMNSLRVEDTALYYCARGGGYNWFDPWGQGTLVTVSS
# VL: DIQMTQSPSSLSASVGDRVTITCRASQSISTYLNWYQQKPGKAPKLLIYTASSLQSGVPSRFSGSGSGTVFTLTISSLQPEDFAIYYCQRSYSPPFTFGPGTRLDIK
# B7: mAb 106 (antibody, V domains shown)
# VH: QVQLVESGGGVVQPGRSLRLSCAASGFTFRSYGMHWVRQAPGKGLEWVAIIWYNGNKKDYVDSVKGRFTISRDNSKNTLYLQMNSLRAEDTALYYCARGPGYNWFDPWGQGTLVTVSS
# VL: DIQMTQSPPSLSASVGDRVTITCRASQRISSYLNWYQQKPGKAPKLLIYAASSLQSGVPSRFSGSGSGTDFTLTISSLQPEDFATYYCQQSDSFPLTFGGGTKVEII
# B8: mAb 110 (antibody, V domains shown)
# VH: QVQLVESGGGVVQPGRSLRLSCAASGFTFRSYGMHWVRQAPGKGLEWVAIIWYNGNKKDYVDSVKGRFTISRDNSKNMLYLQMNSLRAEDTALYYCARGPGYNWFDPWGQGTLVTVSS
# VL: DIQMTQSPPSLSASVGDRVTITCRASQRISSYLNWYQQRPGKAPKLLIYAASSLQSGVPSRFSGSGSGTDFTLTISSLQPEDFATYYCQQTDSFPLTFGGGTKVEII
# B9: mAb 44 (antibody, V domains shown)
# VH: QAQLVQSGSELKKPGASVKVSCKASGYTFTRHAMNWVRQAPGQGLEWMGWINTNTGNPTYAQGFTGRFVFSLDTSVSTAYLKISSLKAEDTAVYYCVREGDYDFWSGFFNFDYWGQGTLVTVSS
# VL: DIQMTQSPSSLSASVGDRVTITCRASQGIRNDLGWFQQKPGKAPTRLIYAASSLQSGVPSRFSGSGSGAEFTLTISSLQPEDFATYYCLQHNSYPRTFGQGTKVEIK
# B10: mAb 47 (antibody, V domains shown)
# V domain 1: QAQLVQSGSELKKPGASVKVSCKASGYTFTKHSMNWVRQAPGQGLEWMGWINTNTGNPTYAQGFTGRFVFSLDTSVTTAYLQISSLKAEDTAVYYCAREGDYDFWSGFFNFDYWGQGTLVTVSS
# V domain 2: QAQLVQSGSELKKPGASVKVSCKASGYTFTKHSMNWVRQAPGQGLEWMGWINTNTGNPTYAQGFTGRFVFSLDTSVTTAYLQISSLKAEDTAVYYCAREGDYDFWSGFFNFDYWGQGTLVTVSS
# B11: mAb 111 (antibody, V domains shown)
# VH: EVQLVESGGVLVKTGGSLRLSCVASGFSFKKAWMNWVRQAPGKGLEWVGRIKRNSDGGAADYAAPVKDRFTLSRDDSKNTLYLQMNSLKTEDTAVYYCTTLDSSSWYVGYYYMDVWGKGTTVTVSS
# VL: DIHMTQSPSSVSASLGDRVTFTCRASQNINNWLAWYQQKPGKAPKLLIYTASSLQSGVPSRFSGSGSGTDFTLTISSLQPDDFATYYCQQAHSLPITFGQGTRLGIK
# B12: mAb 113 (antibody, V domains shown)
# VH: EVQLVESGGGLVKTGGSLRLSCVASGFSFKKAWMNWVRQAPGKGLEWVGRIKRNTDGGTTDYAAPVKGRFTLSRDDSKNTLYLQMNSLKTEDTAVYYCTTLDSSSWYVGYYYMDVWGKGTTVTVSS
# VL: DIQMTQSPSSVSASVGDRVTITCRASQDINNWLAWYQQKPGKAPKILIYTASSLQSGVPSRFSGSGSGTDFTLTISSLQPEDFATYYCQQAHSLPITFGQGTRLEIK
# B13: mAb 112 (antibody, V domains shown)
# VH: EVQLVESGGGLVKTGGSHRLSCVASGFSFKKAWMNWVRQAPGKGLEWVGRIKRNSDGGTTDYAAPVKGRFILSRDDSKNTLYLQMNSLKTEDTAVYYCTTLDSSSWYVGYYYMDVWGKGTTVTVSS
# VL: DIQMTQSPSSVSASVGDRVTITCRASQDINNWLAWYQQKPGKAPKILIYTASNLQSGVPSRFSGSGSGTDFTLTISSLQPEDFATYFCQQAHSLPITFGQGTRLEIK
# Biological target: human CD3 (human, UniProt P07766 23-207; P04234 22-171; P09693 23-182)
# Sequence (P07766 23-207, chain 1 of 3): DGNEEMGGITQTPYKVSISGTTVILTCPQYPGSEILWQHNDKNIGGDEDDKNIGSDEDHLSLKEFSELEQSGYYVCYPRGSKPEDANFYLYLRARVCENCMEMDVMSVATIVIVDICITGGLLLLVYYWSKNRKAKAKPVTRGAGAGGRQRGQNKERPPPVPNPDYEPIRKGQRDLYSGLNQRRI
# Sequence (P04234 22-171, chain 2 of 3): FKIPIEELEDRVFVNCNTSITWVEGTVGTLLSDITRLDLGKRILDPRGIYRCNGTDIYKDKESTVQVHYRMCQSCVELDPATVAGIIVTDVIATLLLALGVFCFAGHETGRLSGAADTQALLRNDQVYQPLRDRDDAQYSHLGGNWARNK
# Sequence (P09693 23-182, chain 3 of 3): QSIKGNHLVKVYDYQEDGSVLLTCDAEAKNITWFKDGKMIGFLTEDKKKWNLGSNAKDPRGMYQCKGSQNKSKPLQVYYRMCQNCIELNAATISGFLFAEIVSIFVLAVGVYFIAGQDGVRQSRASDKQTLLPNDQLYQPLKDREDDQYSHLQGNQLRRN
# Assay: cell-based or functional assay
Binder,"CD4 EC50 (nM); CD69/CD25 on human T cells, plate-coated antibody [nM]","CD8 EC50 (nM); CD69/CD25 on human T cells, plate-coated antibody [nM]"
B1,15.6,16.9
B2,12.6,13.9
B3,11.7,12.1
B4,11.3,12
B5,12.9,14.5
B6,13.1,13.3
B7,13.6,12.9
B8,13.5,15.3
B9,20.4,20.9
B10,23.4,23.8
B11,6.96,9.42
B12,8.81,8.89
B13,6.48,6.56

# Source: patent US20230295310A1 (ABCELLERA BIOLOGICS, published 2023)
